Data as given in patent US20260234276A1 (DOMAIN THERAPEUTICS, published 2026).
Values joined by “and” are separate entries in the source; they are usually repeats but may differ in a detail not shown here. Equal values may be shown once.

Experiments:
human CCR8 [1] = target: T1, human CCR8 (human, UniProt P51685 1-355); assay: cell-based or functional assay
human CCR8 [2] = target: T1, human CCR8; assay: flow cytometry, hCCR8 transfected CHOK1 cells
Procedure: Briefly, 1·10⁵ cells per well in a 96 well plate were incubated with a dilution of unconjugated anti-CCR8 mAb at 10 μg/mL then diluted at 1/3.33, 4 dilution points (during 30 min at 4° C.). […] To determine EC50 value, 8 concentrations of anti-CCR8 mAb were tested. Unbound antibodies were washed away with PBS (Invitrogen by Thermofisher Scientific, Illkirch-Graffenstaden, France) supplemented by 2% Fetal Bovine Serum (Invitrogen by Thermofisher Scientific, Illkirch-Graffenstaden, France) and 2 mM EDTA (Invitrogen by Thermofisher Scientific, Illkirch-Graffenstaden, France). Subsequently, cells are centrifuged (5 min at 400 g) and bound antibody is detected with F(ab′)₂-Goat anti-Mouse IgG (H+L) Cross-Adsorbed Secondary Antibody, Alexa Fluor 488 (dilution 1/500) (Invitrogen by Thermofisher Scientific, Illkirch-Graffenstaden, France) or with F(ab′)₂-Goat anti-Human IgG Fc Secondary Antibody, PE (Invitrogen by Thermofisher Scientific, Illkirch-Graffenstaden, France) (dilution 1/1000) at 4° C. for 30 min. Detection reagent is washed away and cells are centrifuged (5 min at 400 g) and resuspended in 30 μL PBS. Bound detection antibody is quantified on a MacsQuant16 (Miltenyi, Gladbach, Germany) (B1 or B2 channel, 5000 events per acquisition).

pm8 = pm8 (human, sulfated tyrosines at Y15, Y16 and Y17); assay: ELISA on coated peptide [cont.]
Procedure: (§1) The specific binding properties of antibodies were evaluated by ELISA with coated CCR8 related peptides (500 ng/mL) in carbonate/bicarbonate buffer. Different peptides were used as described in Table 1 (see Example 1). Each anti-CCR8 mAb was tested at 1 μg/mL then diluted at 1/10. After an incubation at room temperature during 90 min, unbound mAbs were removed by washings. […] After washings, 3,3′,5,5′-tetramethylbenzidine (TMB) (Interchim, Montlugon, France) was added for 15 min. Then the optical density (OD) was determined by using a multiplate reader (Tecan, Lyon, France) and correlated with mAb reactivity on the panel of coated peptides.

pm3 = pm3 (human, sulfated tyrosine at Y17); assay: ELISA on coated peptide [cont.]
Procedure: as §1

pm6 = pm6 (human, sulfated tyrosines at Y16 and Y17); assay: ELISA on coated peptide [cont.]
Procedure: as §1

pm5 = pm5 (human, sulfated tyrosines at Y15 and Y17); assay: ELISA on coated peptide [cont.]
Procedure: as §1

human CCR8 [3] = target: T1, human CCR8; assay: cell-based or functional assay; remark: listed apart in the source

pm5 (human, sulfated tyrosines at Y15 and Y17), sequence (peptide, as listed by the source): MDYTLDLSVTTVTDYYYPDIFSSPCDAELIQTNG
pm6 (human, sulfated tyrosines at Y16 and Y17), sequence (peptide, as listed by the source): as above
pm8 (human, sulfated tyrosines at Y15, Y16 and Y17), sequence (peptide, as listed by the source): as above
pm3 (human, sulfated tyrosine at Y17), sequence (peptide, as listed by the source): as above

B1: 3-14 (antibody, V domains shown)
VH: EVQLVESGGGLVQPTGSLRLSCAASGFTFNAYAMNWVRQAPGKGLEWVARIRSKSNDYATYYGDSVKDRFTISRDDSQSMLYLQMNNLKTEDTAMYYCVRGREAYYRYDGGYYAMDYWGQGTSVTVSS
VL: DIVMTQAAPSVSVTPGESVSISCTSSKSLLHSNGNTYLYWFLQRPGQSPQLLIYRMSNLASGVPDRFSGSGSGTAFTLRISRVEAEDVGVYYCMQHREYPFTFGSGTKLEIK
Question: Which results are given for B1?
Answer: IC50 (Gi2 BRET, pH 6.5) (human CCR8 [1]): 0.034 µg/ml and 0.225 nM; IC50 (Gi2 BRET, pH 7.4) (human CCR8 [1]): 0.065 µg/ml and 0.434 nM; % positive cells (human CCR8 [2]): 66.8%; MFI fold change to isotype ctrl (human CCR8 [2]): 5.06 fold; binding result (pm8): binds; binding result (pm3): binds; binding result (pm6): binds; binding result (pm5): binds; hCCL1 (100 nM) residual response, Protocol #2, mAb 0.08 µg/mL (human CCR8 [3]): 72%; hCCL1 (100 nM) residual response, Protocol #2, mAb 0.4 µg/mL (human CCR8 [3]): 49%; hCCL1 (100 nM) residual response, Protocol #2, mAb 10 µg/mL (human CCR8 [3]): 28%; hCCL1 (100 nM) residual response, Protocol #3, mAb 0.05 µg/mL (human CCR8 [3]): 75%; hCCL1 (100 nM) residual response, Protocol #3, mAb 0.5 µg/mL (human CCR8 [3]): 36%; hCCL1 (100 nM) residual response, Protocol #3, mAb 5 µg/mL (human CCR8 [3]): 22%

B2: 3-32 (antibody, V domains shown)
VH: EVQLVESGGGLVQPKGSLKLSCAASGFTFNAYAMNWVRQAPGKGLEWLARIRSKSNNYATYYADSVKDRFTISRDDSQSMFYLQMNNLKSEDTAMYYCVRGREAYYRYDGGYYAMDYWGQGTSVTVSS
VL: EIVMTQAALSAPVTPGESVSMSCRSSKSLLHSNGNTYLYWFLQRPGQSPQLLIYRMSNLASGVPDRFSGSGSGTAFTLRISRVEAEDVGVYYCMQHLEYPFTFGSGTKLEIK
Question: What does the source list for B2?
Answer: IC50 (Gi2 BRET, pH 6.5) (human CCR8 [1]): 0.071 µg/ml and 0.476 nM; IC50 (Gi2 BRET, pH 7.4) (human CCR8 [1]): 0.089 µg/ml and 0.596 nM; % positive cells (human CCR8 [2]): 81.8%; MFI fold change to isotype ctrl (human CCR8 [2]): 16.2 fold; binding result (pm8): binds; binding result (pm3): binds; binding result (pm6): binds; binding result (pm5): binds; hCCL1 (100 nM) residual response, Protocol #2, mAb 0.08 µg/mL (human CCR8 [3]): 88%; hCCL1 (100 nM) residual response, Protocol #2, mAb 0.4 µg/mL (human CCR8 [3]): 57%; hCCL1 (100 nM) residual response, Protocol #2, mAb 10 µg/mL (human CCR8 [3]): 46%; hCCL1 (100 nM) residual response, Protocol #3, mAb 0.05 µg/mL (human CCR8 [3]): 73%; hCCL1 (100 nM) residual response, Protocol #3, mAb 0.5 µg/mL (human CCR8 [3]): 36%; hCCL1 (100 nM) residual response, Protocol #3, mAb 5 µg/mL (human CCR8 [3]): 36%

B3: 3-28 (antibody, V domains shown)
VH: EVQLQQSGPELLKPGTSVKISCTTSGYTFSDYTLHWVKQSHGKSLEWIGGITPKNGDTRYDPRFKDKATLTIDKSSSAAYMELRSLTSEDSAVYYCARVARFYGVSPYAMDYWGQGASVTVSS
VL: DVVMTQTPLSLPVSLGDQASISCRCTQSLLHSNGDTYLHWYLQKPGQSPKLLIYKVSNRFSGVPDRFSGSGSGTDFTLEITRVEAEDLGVYFCSQTTHVPYTFGGGTKLEIK
Question: B3 was tested. Which “IC50 (Gi2 BRET, pH 6.5)” value (human CCR8 [1]) did it give?
Answer: The value was 0.044 µg/ml and 0.292 nM.

Question: What about the “IC50 (Gi2 BRET, pH 7.4)” value (human CCR8 [1]) of the same binder?
Answer: The value was 0.061 µg/ml and 0.405 nM.

Question: And the “% positive cells” value (human CCR8 [2])?
Answer: The value was 81.1%.

Question: What about the “MFI fold change to isotype ctrl” value (human CCR8 [2]) of the same binder?
Answer: The value was 10.7 fold.

Question: Does B3 bind (pm8)?
Answer: Result: binds

Question: Does B3 bind (pm3)?
Answer: Result: binds

Question: Does B3 bind (pm6)?
Answer: Result: binds

Question: Does B3 bind (pm5)?
Answer: Result: binds

Question: And the “hCCL1 (100 nM) residual response, Protocol #2, mAb 0.08 µg/mL” value (human CCR8 [3])?
Answer: Its value is 79%.

Question: What about the “hCCL1 (100 nM) residual response, Protocol #2, mAb 0.4 µg/mL” value (human CCR8 [3]) of the same binder?
Answer: Its value is 38%.

Question: And the “hCCL1 (100 nM) residual response, Protocol #2, mAb 10 µg/mL” value (human CCR8 [3])?
Answer: The value was 17%.

Question: And the “hCCL1 (100 nM) residual response, Protocol #3, mAb 0.05 µg/mL” value (human CCR8 [3])?
Answer: Its value is 102%.

Question: And the “hCCL1 (100 nM) residual response, Protocol #3, mAb 0.5 µg/mL” value (human CCR8 [3])?
Answer: Its value is 64%.

Question: What about the “hCCL1 (100 nM) residual response, Protocol #3, mAb 5 µg/mL” value (human CCR8 [3]) of the same binder?
Answer: The value was 47%.
